We go through one compound from patent US9669118B2, “Method of labelling a biologically active molecule with 5-fluoro-5-deoxypentose or a 3-fluoro-3-deoxypentose” (UNIVERSITY COURT OF THE UNIVERSITY OF ST. ANDREWS, priority 2011, dated 2017).

The series in a line: Stability study of the conjugate in phosphate-buffered saline. The series is classed as physicochemical. The note with it: 37° C. How it is done:
A stability study confirmed that the conjugate 4a is stable in phosphate-buffered saline (PBS) at least for 8 hours at 37° C., which is stable enough for PET applications.

As for `N[C@@H](CCC(=O)N[C@@H](CSC1CC(=O)N(CCCCCCON=C[C@H](O)[C@H](O)[C@H](O)CF)C1=O)C(=O)NCC(=O)O)C(=O)O` (stereo partly shown) [conjugate 4a], the “stable in phosphate-buffered saline (PBS)” value was at least 8 h.
